T1: GAD (Gal4 activation domain alone, empty vector control) (UniProt P04386 768-881)
T1 sequence (looked up): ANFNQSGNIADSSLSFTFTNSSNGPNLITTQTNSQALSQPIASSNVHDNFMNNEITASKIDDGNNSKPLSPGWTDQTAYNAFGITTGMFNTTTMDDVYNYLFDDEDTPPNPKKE

T2: GAD-Rnr1 two-hybrid fusion (plasmid pWJ745) (yeast (Saccharomyces cerevisiae), UniProt P21524 1-888)
T2 sequence (looked up): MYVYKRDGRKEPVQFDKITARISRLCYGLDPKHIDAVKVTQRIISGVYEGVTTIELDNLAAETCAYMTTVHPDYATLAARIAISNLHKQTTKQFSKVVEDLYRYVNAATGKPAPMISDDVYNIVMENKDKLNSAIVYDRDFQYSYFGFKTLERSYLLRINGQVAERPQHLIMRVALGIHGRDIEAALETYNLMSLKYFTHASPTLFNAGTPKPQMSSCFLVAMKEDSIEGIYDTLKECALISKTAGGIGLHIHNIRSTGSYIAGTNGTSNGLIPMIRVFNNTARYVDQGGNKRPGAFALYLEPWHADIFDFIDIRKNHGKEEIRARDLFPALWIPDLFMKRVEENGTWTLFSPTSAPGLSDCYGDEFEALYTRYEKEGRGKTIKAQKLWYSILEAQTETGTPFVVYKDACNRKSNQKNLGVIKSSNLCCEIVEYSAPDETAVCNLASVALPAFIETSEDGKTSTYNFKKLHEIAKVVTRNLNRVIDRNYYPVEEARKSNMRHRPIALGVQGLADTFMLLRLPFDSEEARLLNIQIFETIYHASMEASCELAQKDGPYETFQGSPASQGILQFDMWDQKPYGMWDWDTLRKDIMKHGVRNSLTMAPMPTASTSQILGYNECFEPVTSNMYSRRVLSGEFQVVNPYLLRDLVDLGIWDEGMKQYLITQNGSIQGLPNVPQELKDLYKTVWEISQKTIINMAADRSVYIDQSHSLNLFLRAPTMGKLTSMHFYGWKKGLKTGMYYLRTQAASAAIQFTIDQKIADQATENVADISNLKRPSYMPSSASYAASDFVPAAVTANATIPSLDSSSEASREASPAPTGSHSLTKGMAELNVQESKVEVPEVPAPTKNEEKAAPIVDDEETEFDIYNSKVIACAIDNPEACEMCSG

T3: GAD-Rnr2 two-hybrid fusion (plasmid pWJ746) (yeast (Saccharomyces cerevisiae), UniProt P09938 1-399)
T3 construct: Whole RNR2 ORF as cloned
T3 sequence (looked up): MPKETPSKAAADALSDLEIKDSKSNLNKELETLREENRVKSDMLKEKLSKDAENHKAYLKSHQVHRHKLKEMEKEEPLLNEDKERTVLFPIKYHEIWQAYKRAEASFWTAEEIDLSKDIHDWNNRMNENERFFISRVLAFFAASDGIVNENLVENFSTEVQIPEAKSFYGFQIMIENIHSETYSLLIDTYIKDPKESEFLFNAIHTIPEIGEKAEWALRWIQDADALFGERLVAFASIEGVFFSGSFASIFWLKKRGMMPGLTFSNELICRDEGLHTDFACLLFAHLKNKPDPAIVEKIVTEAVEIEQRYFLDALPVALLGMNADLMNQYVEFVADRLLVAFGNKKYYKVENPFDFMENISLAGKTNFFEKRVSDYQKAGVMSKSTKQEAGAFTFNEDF

B1: GBD-Rnr2 two-hybrid fusion (plasmid pWJ729) (other, UniProt P04386 1-147, looked up)
chain: MKLLSSIEQACDICRLKKLKCSKEKPKCAKCLKNNWECRYSPKTKRSPLTRAHLTEVESRLERLEQLFLLIFPREDLDMILKMDSLQDIKALLTGLFVQDNVNKDAVTDRLASVETDMPLTLRQHRISATSSSEESSNKGQRQLTVSMPKETPSKAAADALSDLEIKDSKSNLNKELETLREENRVKSDMLKEKLSKDAENHKAYLKSHQVHRHKLKEMEKEEPLLNEDKERTVLFPIKYHEIWQAYKRAEASFWTAEEIDLSKDIHDWNNRMNENERFFISRVLAFFAASDGIVNENLVENFSTEVQIPEAKSFYGFQIMIENIHSETYSLLIDTYIKDPKESEFLFNAIHTIPEIGEKAEWALRWIQDADALFGERLVAFASIEGVFFSGSFASIFWLKKRGMMPGLTFSNELICRDEGLHTDFACLLFAHLKNKPDPAIVEKIVTEAVEIEQRYFLDALPVALLGMNADLMNQYVEFVADRLLVAFGNKKYYKVENPFDFMENISLAGKTNFFEKRVSDYQKAGVMSKSTKQEAGAFTFNEDF
B2: GAD-Sml1 two-hybrid fusion (plasmid pWJ684, pACTII) (other, not shown: large carriers)
chain: MQNSQDYFYAQNRCQQQQAPSTLRTVTMAEFRRVPLPPMAEVPMLSTQNSMGSSASASASSLEMWEKDLEERLNSIDHDMNNNKFGSGELKSMFNQGKVEEMDF

Columns and labels:
[1] = target: B2; test: cell-based or functional assay
[2] = target: T1, GAD (Gal4 activation domain alone, …); test: cell-based or functional assay
[3] = target: T2, GAD-Rnr1 two-hybrid fusion (plasmid …); test: cell-based or functional assay
[4] = target: T3, GAD-Rnr2 two-hybrid fusion (plasmid …); test: yeast two-hybrid, GBD-Sml1 with GAD-Rnr2
Excerpt: (§1) We next tested the possibility that Sml1 interacts with the subunit(s) of RNR since such interactions may provide a regulatory mechanism to inhibit RNR activity. […] In addition, Rnr1 and Rnr2 each interacts with itself, however these interactions are much weaker than the interaction between Sml1 and Rnr1 (Table 2).
(§2) The strains and plasmids for two-hybrid analysis were PJ69-4A, pGBD-C2, pGAD-C2 (James et al., 1996) and pACTII (CLONTECH® Inc.). The primer pair pB-SML1 5' (SEQ ID NO: 11) and pGBD-SML1 3' (SEQ ID NO: 13) (Table 4) was used to amplify the SML1 ORF. After digestion with BamHI and PstI, this PCR product was cloned into the BamHI-PstI sites of pGBD-C2 to construct plasmid pWJ728. Similarly, plasmid pWJ684 contains a BamHI fragment from the PCR product of the SML1 ORF generated using the primer pair pB-SML1 5' and pB-SML1 3' (SEQ ID NO: 12) (Table 4) and inserted at the BamHI site of pACTII. PCR fragments containing the RNR1 or the RNR2 ORF were generated by primer pairs RNR1-ORF 5' (SEQ ID NO: 14) and RNR1 3' (SEQ ID NO: 15) or RNR2-ORF 5' (SEQ ID NO: 17) and RNR2 3' (SEQ ID NO: 16) (Table 4). These fragments were cloned into the BamHI-PstI site of pGBD-C2 and pGAD-C2 to construct pWJ731 and pWJ745 or pWJ729 and pWJ746 respectively.
(§3) The GAL1-HIS3 reporter was assayed on SC-HIS-LEU-TRP medium plus 1-2 mM 3-aminotriazole. […]

[5] = target: T3, GAD-Rnr2 two-hybrid fusion (plasmid …); test: cell-based or functional assay
[6] = target: B1; test: yeast two-hybrid, GAD-Sml1 with GBD-Rnr2
Excerpt: as §1, §2, §3

Binder	two-hybrid LacZ activity [1] [Miller Units]	two-hybrid LacZ activity [2] [Miller Units]	two-hybrid LacZ activity [3] [Miller Units]	binding result [4]	two-hybrid LacZ activity [5] [Miller Units]	binding result [6]
GBD-Sml1 two-hybrid fusion (plasmid pWJ728) (other, also called GBD fusion SML1) MKLLSSIEQACDICRLKKLKCSKEKPKCAKCLKNNWECRYSPKTKRSPLTRAHLTEVESRLERLEQLFLLIFPREDLDMILKMDSLQDIKALLTGLFVQDNVNKDAVTDRLASVETDMPLTLRQHRISATSSSEESSNKGQRQLTVSMQNSQDYFYAQNRCQQQQAPSTLRTVTMAEFRRVPLPPMAEVPMLSTQNSMGSSASASASSLEMWEKDLEERLNSIDHDMNNNKFGSGELKSMFNQGKVEEMDF	3.3	4	31	no binding	–	–
B1	0.9	1.4	–	–	2.3	–
B2	–	–	–	–	–	no binding

Source: patent US7125658B2, “Small protein that interacts with a ribonucleotide reductase subunit and uses thereof” (The Trustees of Columbia University in the City of New York, priority 1998, dated 2006)
